The RNAGym collection of RNA variant scans (doi:10.1073/pnas.2313332121)
Fewer inactive variants are shown than the library holds.

B1: TPR 5TU (parent)
chain: GGAUCUUCUCGAUCUAACAAAAAAGACAAAUCUGCCACAAAGCUUGAGAGCAUCUUCGGAUGCAGAGGCGGCAGCCUUCGGUGGCGCGAUAGCGCCAACGUUCUCAACUAUGACACGCAAAACGCGUGCUCCGUUGAAUGGAGUUUAUCAUG

Variants of: B1
Assay: polymerase ribozyme fitness, log enrichment relative to wild type (log ratio); higher = more active; in vitro selection for triplet polymerase activity
How it was run: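 To select mutant libraries of each subunit of a heterodimeric triplet polymerase ribozyme, built by PCR and transcribed, each was annealed with a biotinylated primer, partner subunit and triplets, then incubated frozen at −7 °C. Extended constructs were gel-excised, captured on streptavidin beads and amplified by RT-PCR, in one round carried out in triplicate. Illumina sequencing of input and output libraries kept genotypes with ≥10 input reads and ≥1 read per output. Fitness is the base-2 logarithm of genotype enrichment relative to wild-type enrichment, from inverse-variance-weighted replicate averages.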

Row | Variant | polymerase ribozyme fitness (log ratio)
1 | A24C C118U C125U | ≤ -4.2
2 | A20U A39C G48A G94A | ≤ -4.2
3 | A23C C54U U55A G71A A122G | ≤ -4.2
4 | G71U C108U | ≤ -4.2
5 | A91G A113C U127C U146G | ≤ -4.2
6 | U9G A23U G34C C57A C93A | ≤ -4.2
7 | C14G A20G C75A C96G G141C | ≤ -4.2
8 | G84A G100C | ≤ -4.2
9 | C54U G81A C95U | -0.559
10 | C54A A64G U111C G133U G140A G143A | ≤ -4.2
11 | G62A G65A G117U U144A | -3.79
12 | A19U C85A | -1.33
13 | A17G A49C G59U G92A A113G A119U | -4.03
14 | G48C G70A C75G C87G C93G G140A G152A | -4.11
15 | A49U A73G G81C C85U | -2.64
16 | C36U C93G C103G C129A G141C | ≤ -4.2
17 | C85U A89U A110C A121U G136A U146C | ≤ -4.2
18 | C5G U33C G50C C57U G71A A73U A91U | ≤ -4.2
19 | C5U U13G A20C C27G G80A C87U U148G | ≤ -4.2
20 | G58C C87G A98G | ≤ -4.2
21 | C87U A150C | -3.7

Row | Variant | polymerase ribozyme fitness (log ratio)
22 | U9C | -1.27
23 | A52U G81A C87A A97U U104G G126C U134G G136C | ≤ -4.2
24 | C14A A16G | -0.651
25 | C85U A121C | -0.139
26 | C8G A24G A30G G70A G136C | ≤ -4.2
27 | G25C U61A C87G A138G | ≤ -4.2
28 | G25C U56G G84A A89G U130C | -2.97
29 | G81C C85U A107C G126A | -4.16
30 | G83A U101G A106U U145C | -2.55
31 | A40G U55A C76G G81A G86U C149U | ≤ -4.2
32 | A3C A16G | -1.12
33 | G88U A91G | ≤ -4.2
34 | A37C G58C G65A | -3.6
35 | C85U A91U C95G G140U | ≤ -4.2
36 | A52U G74A C87A A119U U148G | ≤ -4.2
37 | A29G C35U U145C | -3.89
38 | A21U A26G G71A C125U | ≤ -4.2
39 | C14U A73U U78G C87G A122U C123U | ≤ -4.2
40 | A24U A26U C54U G84U U127A | ≤ -4.2
41 | A16U U55G C87U | -2.67
42 | G62C A120G | -0.94

Row | Variant | polymerase ribozyme fitness (log ratio)
43 | C85U | -0.513
44 | A39G G42A | -3.64
45 | G83A C95U A106C A107G | -3.5
46 | A22G A40G A41C C57U A107U A120U | ≤ -4.2
47 | A89U C93U C125U U127A A142U C149U | ≤ -4.2
48 | G74A C85G | -3.83
49 | C43U A49C C96A A107C A113U | ≤ -4.2
50 | U53C G94C A98C U148G | ≤ -4.2
51 | G84A A115U | -2.62
52 | C10A A16G C32G G50A G133C | ≤ -4.2
53 | C18G C72U G86U G88C A150G | ≤ -4.2
54 | A52C C93G | -3.65
55 | U15A C27G U55A C57G G94U C105U G136A G143U | ≤ -4.2
56 | G34U C85A | -3.91
57 | A16U C69A U145G | -3.75
58 | C96G A150U | 0.451
59 | A17C A37C C93G | -2.89
60 | C38A C85A U144C | -0.839
61 | C32A C35U C57G G62A U90C C103G C116U C149U | ≤ -4.2
62 | U61A A64G G140C U144C | ≤ -4.2
63 | A47C G92U C105U C131G | ≤ -4.2

Row | Variant | polymerase ribozyme fitness (log ratio)
64 | A19U G59U G86A G136A | -2.01
65 | C51G C54U A98G C132A U135G | ≤ -4.2
66 | C85U C96U | -0.746
67 | G42U A73G U78G C93A U146A | ≤ -4.2
68 | A16C A20C A41C C85G C116U | -3.81
69 | U33A G48A U78C G84A C105U | ≤ -4.2
70 | C57A | -0.00233
71 | A47C A52G G68C A91C | ≤ -4.2
72 | A16C G141A | -0.406
73 | G86U C96A | -2.89
74 | A3U U4A C5U C14G A16U A30C G83U G100A | ≤ -4.2
75 | G81A C96U C114G A115U | -3.6
76 | A3G U15A U90C G94U G124A C125U | ≤ -4.2
77 | U4G C79A C93A | ≤ -4.2
78 | U13A A26U C76U U146A | -3.35
79 | U7C C38A C51G G83U G84A | ≤ -4.2
80 | C85A U148C | -2.22
81 | A20U C96G A150U | 0.47
82 | G46A C76A G86U A121U U144G | ≤ -4.2
83 | A60G C105G U145G | -1.64
